Here are results for 167 variants from the RNAGym collection of RNA variant scans (doi:10.7554/elife.80360).

B1: HDV Ribozyme (parent)
chain: GGCCGGCAUGGUCCCAGCCUCCUCGCUGGCGCCGGCUGGGCAACAUUCCGAGGGGACCGUCCCCUCGGUAAUGGCGAAUGGGACCCA

In the data set the parent is B1. The data set can be described thus: self-cleavage, relative activity (ratio to wild type); higher = more cleavage; co-transcriptional.
Take C36A C61G: the self-cleavage amounted to 0.269.

Consider C36G A71U, for which the self-cleavage was 0.095.

On to G34C A71C, for which the self-cleavage was 0.201.

As for G34C A71G, the self-cleavage was determined as 0.

For the variant G34C C58A, the self-cleavage stood at 0.161.

G34U C85U: the self-cleavage was 0.164.

Turning to G35C G73C, the self-cleavage was found to be 0.269.

As to G34C G76A, the self-cleavage turned out to be 0.163.

On to G35A U69A, for which the self-cleavage was 0.571.

For C36U A43G, the self-cleavage was found to be 0.196.

Consider G34A C75A, for which the self-cleavage is 0.107.

As to G35U C66G, the self-cleavage worked out at 0.458.

Regarding G35U C66A, the self-cleavage is 0.332.

In the case of C36A C64U, the self-cleavage worked out at 0.237.

Take G35A A83C: the self-cleavage was 0.0692.

In the case of G35A A71G, the self-cleavage turned out to be 0.464.

On to C36A C63A, for which the self-cleavage amounted to 0.237.

Take C36A G54A: the self-cleavage is 0.0804.

With C36A G54U, the self-cleavage worked out at 0.229.

As for G35C G54C, the self-cleavage was 0.17.

As for C36G C66U, the self-cleavage was found to be 0.0997.

For G34U G39U, the self-cleavage amounted to 0.115.

For the variant G34U G39C, the self-cleavage amounted to 0.111.

As to G34A G39C, the self-cleavage worked out at 0.0707.

Regarding G34A A78U, the self-cleavage was found to be 0.0489.

Take G35U C61G: the self-cleavage is 0.286.

On to G35U C61U, for which the self-cleavage is 0.554.

For G34C A78C, the self-cleavage amounted to 0.0898.

As to G34C A78G, the self-cleavage came to 0.0755.

For C36G G53C, the self-cleavage was 0.158.

C36G A78G: the self-cleavage stood at 0.0639.

Turning to C36G A78U, the self-cleavage amounted to 0.0346.

Consider C36U C86A, for which the self-cleavage worked out at 0.747.

C36U C86G: the self-cleavage is 0.703.

With G34C C36A, the self-cleavage was 0.0707.

For the variant G34U U79G, the self-cleavage amounted to 0.0978.

Consider G34A G50A, for which the self-cleavage was found to be 0.16.

G34A G74C: the self-cleavage is 0.102.

G35C A42G: the self-cleavage stood at 0.192.

Turning to G35C A42C, the self-cleavage is 0.107.

Turning to G34C G39U, the self-cleavage turned out to be 0.156.

On to G34U C49U, for which the self-cleavage was found to be 0.136.

As for G35A G38C, the self-cleavage came to 0.0652.

With C36G A77U, the self-cleavage was determined as 0.177.

With C36A G68A, the self-cleavage was 0.293.

As for G34C C49A, the self-cleavage stood at 0.249.

With G34C C49U, the self-cleavage was 0.208.

With C36A C48G, the self-cleavage amounted to 0.203.

For G35C U47A, the self-cleavage amounted to 0.0594.

Turning to G35A C48A, the self-cleavage was 0.659.

For the variant G34A U47G, the self-cleavage is 0.0791.

Consider G35A G59A, for which the self-cleavage came out at 0.494.

In the case of G35A G59U, the self-cleavage was 0.646.

As to G35A G59C, the self-cleavage is 0.61.

Take G35U G53C: the self-cleavage was found to be 0.478.

On to G35U G53A, for which the self-cleavage was 0.42.

As to G35C C41A, the self-cleavage turned out to be 0.237.

In the case of G35C C41G, the self-cleavage was 0.161.

As for G35U A42C, the self-cleavage turned out to be 0.115.

Take G34A C58G: the self-cleavage amounted to 0.177.

G34A C58U: the self-cleavage came to 0.122.

With G34U A56U, the self-cleavage came out at 0.18.

On to G34A G81A, for which the self-cleavage worked out at 0.128.

Turning to G35C C63G, the self-cleavage turned out to be 0.0449.

With C36G U46G, the self-cleavage was 0.0692.

For the variant G35C C48A, the self-cleavage was determined as 0.269.

Turning to G34C G52A, the self-cleavage amounted to 0.17.

G35U G40U: the self-cleavage turned out to be 0.12.

For G35U G40A, the self-cleavage was determined as 0.304.

As to G35C A45G, the self-cleavage was 0.237.

Turning to C36A C86A, the self-cleavage is 0.134.

In the case of G34U G82A, the self-cleavage is 0.123.

Consider G35A U79C, for which the self-cleavage worked out at 0.282.

In the case of G35C C61G, the self-cleavage stood at 0.217.

As for G34U A78U, the self-cleavage is 0.121.

As for G35C A56G, the self-cleavage turned out to be 0.128.

In the case of G35C A56U, the self-cleavage is 0.232.

Take G34C C48U: the self-cleavage turned out to be 0.17.

For the variant G35A C61U, the self-cleavage was determined as 0.511.

Take G35U U47G: the self-cleavage came to 0.295.

As for G35C C86G, the self-cleavage was determined as 0.0489.

Regarding G35A C57G, the self-cleavage was found to be 0.684.

Regarding C36U A51G, the self-cleavage came to 0.652.

Take G34U G76A: the self-cleavage was 0.231.

In the case of G34U G76C, the self-cleavage is 0.0821.

Consider C36G G38U, for which the self-cleavage was found to be 0.199.

As to G35C C58U, the self-cleavage came to 0.231.

Regarding G35C C58G, the self-cleavage was found to be 0.161.

Take C36A U79C: the self-cleavage turned out to be 0.086.

For G35C U46A, the self-cleavage is 0.101.

In the case of G34C C41G, the self-cleavage stood at 0.107.

For G35A U65G, the self-cleavage is 0.554.

Take G34U C41U: the self-cleavage turned out to be 0.131.

Regarding G35U G73A, the self-cleavage was 0.0911.

As to C36G G81C, the self-cleavage was found to be 0.0656.

In the case of G35A C62U, the self-cleavage stood at 0.665.

As to G35A C62G, the self-cleavage was 0.448.

G35U C85A: the self-cleavage was determined as 0.373.

G35U C85G: the self-cleavage was found to be 0.356.

As for G34A A77U, the self-cleavage was found to be 0.0339.

As for G35C A70G, the self-cleavage was 0.208.

For G35A C66U, the self-cleavage was 0.655.

For G35U G55C, the self-cleavage was found to be 0.409.

As for G35U G55A, the self-cleavage amounted to 0.477.

On to G35C C44G, for which the self-cleavage amounted to 0.145.

G35C A83G: the self-cleavage amounted to 0.237.

Take G35C A83C: the self-cleavage was found to be 0.162.

On to G35U G39C, for which the self-cleavage was 0.

Take G35C G50C: the self-cleavage amounted to 0.0923.

Consider G34U C61A, for which the self-cleavage was determined as 0.0608.

G34A C36A: the self-cleavage was 0.0978.

Take G34A U60C: the self-cleavage came out at 0.258.

Take G34A U37C: the self-cleavage amounted to 0.102.

Turning to G34A U37A, the self-cleavage stood at 0.0554.

On to G35A C86A, for which the self-cleavage was 0.643.

For G34C U60A, the self-cleavage came to 0.306.

As for C36G C62U, the self-cleavage was determined as 0.246.

For the variant C36U C75U, the self-cleavage was found to be 0.244.

Take C36A A77G: the self-cleavage worked out at 0.0791.

Turning to G35C U79G, the self-cleavage came out at 0.214.

For the variant G34U G53C, the self-cleavage came to 0.136.

In the case of C36A G50C, the self-cleavage was found to be 0.113.

Turning to C36A G82A, the self-cleavage was found to be 0.071.

Turning to G35A C75U, the self-cleavage was 0.133.

As for G35A C75A, the self-cleavage was 0.151.

On to C36G G73C, for which the self-cleavage was 0.185.

Regarding C36G G73A, the self-cleavage is 0.0723.

In the case of G35U G82A, the self-cleavage amounted to 0.0841.

In the case of G35U C63U, the self-cleavage is 0.513.

For G35U C63G, the self-cleavage was determined as 0.262.

For the variant G35C G74U, the self-cleavage came to 0.133.

Take G35A G81A: the self-cleavage was 0.277.

Consider G35A G53A, for which the self-cleavage is 0.411.

Consider G35C U60G, for which the self-cleavage came out at 0.353.

As to C36G C85U, the self-cleavage was found to be 0.151.

Take C36G C44A: the self-cleavage came out at 0.128.

In the case of G35A U60G, the self-cleavage came to 0.554.

C36G U65C: the self-cleavage stood at 0.18.

Turning to C36G A45G, the self-cleavage stood at 0.185.

As to C36G A45C, the self-cleavage amounted to 0.0504.

With C36A A83C, the self-cleavage is 0.0791.

For the variant C36U C57U, the self-cleavage is 0.679.

For G35A A43C, the self-cleavage was found to be 0.0272.

G34C A70U: the self-cleavage was found to be 0.0378.

For G35U A70G, the self-cleavage stood at 0.554.

Take G35U A70U: the self-cleavage was determined as 0.496.

For the variant G35U A45U, the self-cleavage was 0.289.

G35U A45C: the self-cleavage was 0.0475.

G34U C57G: the self-cleavage worked out at 0.178.

As for C36G A70U, the self-cleavage is 0.119.

Consider G35A U72C, for which the self-cleavage came out at 0.283.

Regarding G34U G54C, the self-cleavage came to 0.0468.

As to G34U G54A, the self-cleavage was found to be 0.041.

For the variant G34U G50U, the self-cleavage was 0.191.

For the variant G35U C64U, the self-cleavage is 0.449.

As for G34C C61A, the self-cleavage was 0.208.

In the case of G34A A56U, the self-cleavage came to 0.256.

In the case of C36U C64U, the self-cleavage stood at 0.628.

C36A A51C: the self-cleavage came out at 0.277.

C36A A51G: the self-cleavage is 0.269.

For C36A A51U, the self-cleavage amounted to 0.17.

As to G35U G54C, the self-cleavage is 0.517.

G34C C62G: the self-cleavage was 0.0639.

Take G34A G80A: the self-cleavage is 0.0241.

In the case of C36A G80U, the self-cleavage was 0.0825.

With G34C G68C, the self-cleavage is 0.128.

Take C36U C48G: the self-cleavage was 0.831.
